We go through two molecules from patent publication CN101663321A.

Test in all cases: dot blot: serial dilutions of hLIGHT spotted on PVDF, probed with 5 μg/ml antibody
Test [1] deals with denatured soluble hLIGHT (boiled in 2x SDS sample buffer) (human) (UniProt O43557).
In test [2] the target is soluble FLAG-tagged recombinant hLIGHT (Gly66-Val240 with N-terminal FLAG), native form (human) (UniProt O43557).
Test [3] concerns the target denatured soluble hLIGHT (boiled in 2x SDS sample buffer) (human) (UniProt O43557). The source holds these as a separate data set.

Where two headings read alike, the source gives them in different places.

B1: F19 antibody (produced by hybridoma 124F19, ATCC PTA-7819) (antibody, human IgG1, V domains shown)
VH: QVQLQQWGAGLLKPSETLSLTCAVYGGSFSGYNWHWIRQPPGKGLEWIGEITHSGSTNYNPSLKSRVTISVDTSKNQFSLKLSSVTAADTAVYYCVREIAVAGTGYYGMDVWGQGTTVTVSS
VL: AIQLTQSPSSLSASVGDRVTITCRASRGINSAFAWYQQKPGKAPKLLIYDASSLESGVPSRFSGSGSGTDFTLTISSLQPEDFATYYCQQFNSYPLTFGGGTKVEIK
Consider B1, for which the figures for the lowest detection limit (dot blot) in test [1] and in test [2] were greater than 5000 ng and 23 ng, respectively.

B2: E63 antibody (produced by hybridoma 124E63, ATCC PTA-7818) (antibody, V domains shown)
VH: QVQLQESGPGLVKPSETLSLTCIVSGGSVSSGGYYWSWIRQPPGKGLEWIGYIYYSGSTNYNPSLKSRVTISVDTSKNQFSLKLSSVTAADTAVYYCARWITMFRGVGFDPWGQGTLVTVSS
VL: EIVLTQSPDFQSVTPKEKVTITCRASQSIGSSLHWYQQKPDQSPKLLIKYASQSFSGVPSRFSGSGSGTDFTLTINSLEAEDAAAYYCHQSSSLPLTFGGGTKVEIK
As to B2, the lowest detection limit (dot blot) worked out at 3.9 ng in test [2] and 139 ng in test [3].
